Test results published in patent EP1942187B1.

Key:
Experiment in all cases: cell-based or functional assay
IL10Rb (CRF2-4) (human) = IL10Rb (CRF2-4) (human) (UniProt Q08334)
[1] = biological target: zcytoR19 and IL10Rb (CRF2-4) coexpressed on BHK cells (human)
human zcytor19 (human) = biological target: human zcytor19 (human)

IL10Rb (CRF2-4) (human), sequence (Q08334 20-325 limits assumed, form in doubt): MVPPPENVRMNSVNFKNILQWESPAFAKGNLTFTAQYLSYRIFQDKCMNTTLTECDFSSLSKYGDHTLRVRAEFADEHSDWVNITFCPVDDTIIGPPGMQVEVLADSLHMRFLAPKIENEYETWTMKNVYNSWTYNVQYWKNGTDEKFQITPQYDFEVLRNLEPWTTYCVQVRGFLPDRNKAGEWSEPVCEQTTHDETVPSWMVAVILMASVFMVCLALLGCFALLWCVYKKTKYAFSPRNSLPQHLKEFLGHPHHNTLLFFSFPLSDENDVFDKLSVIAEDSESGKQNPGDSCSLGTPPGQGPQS

Substance: zcyto20-CEE (ligand)
- Optical Density (570nm), MTT, EMCV-infected HuzcytoR19-overexpressing 293 cells; Zcyto20-CEE 0.5 ng/ml; Anti-IL10Rb 5 ug/ml (IL10Rb (CRF2-4) (human)): 0.95 OD 570nm
- Optical Density (570nm), MTT, EMCV-infected HuzcytoR19-overexpressing 293 cells; Zcyto20-CEE 0.5 ng/ml; Anti-LeptinR 5 ug/ml (control antibody) (IL10Rb (CRF2-4) (human)): 0.24 OD 570nm
- Optical Density (570nm), MTT, EMCV-infected wild-type 293 cells; Zcyto20-CEE 200 ng/ml; Anti-IL10Rb 5 ug/ml (IL10Rb (CRF2-4) (human)): 0.94 OD 570nm
- Optical Density (570nm), MTT, EMCV-infected wild-type 293 cells; Zcyto20-CEE 200 ng/ml; Anti-LeptinR 5 ug/ml (control antibody) (IL10Rb (CRF2-4) (human)): 0.88 OD 570nm

Substance: zcyto21 (from UniProt Q8IU54 20-200) (ligand)
- ISRE-luciferase fold induction; BHK cells transfected with zcytoR19 and IL10Rb (CRF2-4); zcyto21 0.001 ng/ml (fold induction) [1]: 1.3
- ISRE-luciferase fold induction; BHK cells transfected with zcytoR19 and IL10Rb (CRF2-4); zcyto21 0.01 ng/ml (fold induction) [1]: 1.6
- ISRE-luciferase fold induction; BHK cells transfected with zcytoR19 and IL10Rb (CRF2-4); zcyto21 0.1 ng/ml (fold induction) [1]: 2.2
- ISRE-luciferase fold induction; BHK cells transfected with zcytoR19 and IL10Rb (CRF2-4); zcyto21 1 ng/ml (fold induction) [1]: 2.5
- ISRE-luciferase fold induction; BHK cells transfected with zcytoR19 and IL10Rb (CRF2-4); zcyto21 10 ng/ml (fold induction) [1]: 2.6
- ISRE-luciferase fold induction; BHK cells transfected with zcytoR19 and IL10Rb (CRF2-4); zcyto21 100 ng/ml (fold induction) [1]: 2.5
- ISRE-luciferase fold induction; BHK cells transfected with zcytoR19 and IL10Rb (CRF2-4); zcyto21 1000 ng/ml (fold induction) [1]: 2.2
- ISRE-luciferase fold induction; wild-type 293 cells; Zcyto21 0.001 ng/ml; + IL10Rb neutralizing antibody (2.5 ug/ml) (fold induction) (IL10Rb (CRF2-4) (human)): 1.3
- ISRE-luciferase fold induction; wild-type 293 cells; Zcyto21 0.001 ng/ml; no antibody (fold induction) (IL10Rb (CRF2-4) (human)): 1.2
- ISRE-luciferase fold induction; wild-type 293 cells; Zcyto21 0.01 ng/ml; + IL10Rb neutralizing antibody (2.5 ug/ml) (fold induction) (IL10Rb (CRF2-4) (human)): 1.3
- ISRE-luciferase fold induction; wild-type 293 cells; Zcyto21 0.01 ng/ml; no antibody (fold induction) (IL10Rb (CRF2-4) (human)): 1.2
- ISRE-luciferase fold induction; wild-type 293 cells; Zcyto21 0.1 ng/ml; + IL10Rb neutralizing antibody (2.5 ug/ml) (fold induction) (IL10Rb (CRF2-4) (human)): 1.3
- ISRE-luciferase fold induction; wild-type 293 cells; Zcyto21 0.1 ng/ml; no antibody (fold induction) (IL10Rb (CRF2-4) (human)): 1.1
- ISRE-luciferase fold induction; wild-type 293 cells; Zcyto21 1 ng/ml; + IL10Rb neutralizing antibody (2.5 ug/ml) (fold induction) (IL10Rb (CRF2-4) (human)): 1.3
- ISRE-luciferase fold induction; wild-type 293 cells; Zcyto21 1 ng/ml; no antibody (fold induction) (IL10Rb (CRF2-4) (human)): 1.5
- ISRE-luciferase fold induction; wild-type 293 cells; Zcyto21 10 ng/ml; + IL10Rb neutralizing antibody (2.5 ug/ml) (fold induction) (IL10Rb (CRF2-4) (human)): 1.4
- ISRE-luciferase fold induction; wild-type 293 cells; Zcyto21 10 ng/ml; no antibody (fold induction) (IL10Rb (CRF2-4) (human)): 3.2
- ISRE-luciferase fold induction; wild-type 293 cells; Zcyto21 100 ng/ml; + IL10Rb neutralizing antibody (2.5 ug/ml) (fold induction) (IL10Rb (CRF2-4) (human)): 1.8
- ISRE-luciferase fold induction; wild-type 293 cells; Zcyto21 100 ng/ml; no antibody (fold induction) (IL10Rb (CRF2-4) (human)): 4.1
- ISRE-luciferase fold induction; zcytoR19-overexpressing 293 cells; Zcyto21 0.001 ng/ml; + IL10Rb neutralizing antibody (2.5 ug/ml) (fold induction) (IL10Rb (CRF2-4) (human)): 1
- ISRE-luciferase fold induction; zcytoR19-overexpressing 293 cells; Zcyto21 0.001 ng/ml; no antibody (fold induction) (IL10Rb (CRF2-4) (human)): 1.1
- ISRE-luciferase fold induction; zcytoR19-overexpressing 293 cells; Zcyto21 0.01 ng/ml; + IL10Rb neutralizing antibody (2.5 ug/ml) (fold induction) (IL10Rb (CRF2-4) (human)): 1.1
- ISRE-luciferase fold induction; zcytoR19-overexpressing 293 cells; Zcyto21 0.01 ng/ml; no antibody (fold induction) (IL10Rb (CRF2-4) (human)): 3.5
- ISRE-luciferase fold induction; zcytoR19-overexpressing 293 cells; Zcyto21 0.1 ng/ml; + IL10Rb neutralizing antibody (2.5 ug/ml) (fold induction) (IL10Rb (CRF2-4) (human)): 1
- ISRE-luciferase fold induction; zcytoR19-overexpressing 293 cells; Zcyto21 0.1 ng/ml; no antibody (fold induction) (IL10Rb (CRF2-4) (human)): 1.5
- ISRE-luciferase fold induction; zcytoR19-overexpressing 293 cells; Zcyto21 1 ng/ml; + IL10Rb neutralizing antibody (2.5 ug/ml) (fold induction) (IL10Rb (CRF2-4) (human)): 5.8
- ISRE-luciferase fold induction; zcytoR19-overexpressing 293 cells; Zcyto21 1 ng/ml; no antibody (fold induction) (IL10Rb (CRF2-4) (human)): 35
- ISRE-luciferase fold induction; zcytoR19-overexpressing 293 cells; Zcyto21 10 ng/ml; + IL10Rb neutralizing antibody (2.5 ug/ml) (fold induction) (IL10Rb (CRF2-4) (human)): 28
- ISRE-luciferase fold induction; zcytoR19-overexpressing 293 cells; Zcyto21 10 ng/ml; no antibody (fold induction) (IL10Rb (CRF2-4) (human)): 48
- ISRE-luciferase fold induction; zcytoR19-overexpressing 293 cells; Zcyto21 100 ng/ml; + IL10Rb neutralizing antibody (2.5 ug/ml) (fold induction) (IL10Rb (CRF2-4) (human)): 31
- ISRE-luciferase fold induction; zcytoR19-overexpressing 293 cells; Zcyto21 100 ng/ml; no antibody (fold induction) (IL10Rb (CRF2-4) (human)): 45
- ISRE-luciferase fold induction; 293 cells transfected with ISRE-Luc./Zcytor19; Zcyto21 125ng/ml (fold induction) (human zcytor19 (human)): 108
- ISRE-luciferase fold induction; BHK cells transfected with zcytoR19 alone; zcyto21 0.001 ng/ml (fold induction) (human zcytor19 (human)): 1.3
- ISRE-luciferase fold induction; BHK cells transfected with zcytoR19 alone; zcyto21 0.01 ng/ml (fold induction) (human zcytor19 (human)): 1.4
- ISRE-luciferase fold induction; BHK cells transfected with zcytoR19 alone; zcyto21 0.1 ng/ml (fold induction) (human zcytor19 (human)): 1.4
- ISRE-luciferase fold induction; BHK cells transfected with zcytoR19 alone; zcyto21 1 ng/ml (fold induction) (human zcytor19 (human)): 2
- ISRE-luciferase fold induction; BHK cells transfected with zcytoR19 alone; zcyto21 10 ng/ml (fold induction) (human zcytor19 (human)): 2.4
- ISRE-luciferase fold induction; BHK cells transfected with zcytoR19 alone; zcyto21 100 ng/ml (fold induction) (human zcytor19 (human)): 2.6
- ISRE-luciferase fold induction; BHK cells transfected with zcytoR19 alone; zcyto21 1000 ng/ml (fold induction) (human zcytor19 (human)): 3.3

Substance: zcyto22 (ligand)
- ISRE-luciferase fold induction; BHK cells transfected with zcytoR19 and IL10Rb (CRF2-4); zcyto22 0.001 ng/ml (fold induction) [1]: 1.3
- ISRE-luciferase fold induction; BHK cells transfected with zcytoR19 and IL10Rb (CRF2-4); zcyto22 0.01 ng/ml (fold induction) [1]: 1.7
- ISRE-luciferase fold induction; BHK cells transfected with zcytoR19 and IL10Rb (CRF2-4); zcyto22 0.1 ng/ml (fold induction) [1]: 2.4
- ISRE-luciferase fold induction; BHK cells transfected with zcytoR19 and IL10Rb (CRF2-4); zcyto22 1 ng/ml (fold induction) [1]: 2.7
- ISRE-luciferase fold induction; BHK cells transfected with zcytoR19 and IL10Rb (CRF2-4); zcyto22 10 ng/ml (fold induction) [1]: 2.7
- ISRE-luciferase fold induction; BHK cells transfected with zcytoR19 and IL10Rb (CRF2-4); zcyto22 100 ng/ml (fold induction) [1]: 2.2
- ISRE-luciferase fold induction; BHK cells transfected with zcytoR19 and IL10Rb (CRF2-4); zcyto22 1000 ng/ml (fold induction) [1]: 2.2
- ISRE-luciferase fold induction; wild-type 293 cells; Zcyto22 0.01 ng/ml; + IL10Rb neutralizing antibody (8 ug/ml) (fold induction) (IL10Rb (CRF2-4) (human)): 0.9
- ISRE-luciferase fold induction; wild-type 293 cells; Zcyto22 0.01 ng/ml; no antibody (fold induction) (IL10Rb (CRF2-4) (human)): 0.9
- ISRE-luciferase fold induction; wild-type 293 cells; Zcyto22 0.1 ng/ml; + IL10Rb neutralizing antibody (8 ug/ml) (fold induction) (IL10Rb (CRF2-4) (human)): 0.8
- ISRE-luciferase fold induction; wild-type 293 cells; Zcyto22 0.1 ng/ml; no antibody (fold induction) (IL10Rb (CRF2-4) (human)): 1.2
- ISRE-luciferase fold induction; wild-type 293 cells; Zcyto22 1 ng/ml; + IL10Rb neutralizing antibody (8 ug/ml) (fold induction) (IL10Rb (CRF2-4) (human)): 0.8
- ISRE-luciferase fold induction; wild-type 293 cells; Zcyto22 1 ng/ml; no antibody (fold induction) (IL10Rb (CRF2-4) (human)): 1.8
- ISRE-luciferase fold induction; wild-type 293 cells; Zcyto22 10 ng/ml; + IL10Rb neutralizing antibody (8 ug/ml) (fold induction) (IL10Rb (CRF2-4) (human)): 1
- ISRE-luciferase fold induction; wild-type 293 cells; Zcyto22 10 ng/ml; no antibody (fold induction) (IL10Rb (CRF2-4) (human)): 8
- ISRE-luciferase fold induction; wild-type 293 cells; Zcyto22 100 ng/ml; + IL10Rb neutralizing antibody (8 ug/ml) (fold induction) (IL10Rb (CRF2-4) (human)): 1.2
- ISRE-luciferase fold induction; wild-type 293 cells; Zcyto22 100 ng/ml; no antibody (fold induction) (IL10Rb (CRF2-4) (human)): 11
- ISRE-luciferase fold induction; zcytoR19-overexpressing 293 cells; Zcyto22 0.01 ng/ml; + IL10Rb neutralizing antibody (8 ug/ml) (fold induction) (IL10Rb (CRF2-4) (human)): 1.3
- ISRE-luciferase fold induction; zcytoR19-overexpressing 293 cells; Zcyto22 0.01 ng/ml; no antibody (fold induction) (IL10Rb (CRF2-4) (human)): 1
- ISRE-luciferase fold induction; zcytoR19-overexpressing 293 cells; Zcyto22 0.1 ng/ml; + IL10Rb neutralizing antibody (8 ug/ml) (fold induction) (IL10Rb (CRF2-4) (human)): 1.1
- ISRE-luciferase fold induction; zcytoR19-overexpressing 293 cells; Zcyto22 0.1 ng/ml; no antibody (fold induction) (IL10Rb (CRF2-4) (human)): 8.4
- ISRE-luciferase fold induction; zcytoR19-overexpressing 293 cells; Zcyto22 1 ng/ml; + IL10Rb neutralizing antibody (8 ug/ml) (fold induction) (IL10Rb (CRF2-4) (human)): 2.3
- ISRE-luciferase fold induction; zcytoR19-overexpressing 293 cells; Zcyto22 1 ng/ml; no antibody (fold induction) (IL10Rb (CRF2-4) (human)): 69
- ISRE-luciferase fold induction; zcytoR19-overexpressing 293 cells; Zcyto22 10 ng/ml; + IL10Rb neutralizing antibody (8 ug/ml) (fold induction) (IL10Rb (CRF2-4) (human)): 39
- ISRE-luciferase fold induction; zcytoR19-overexpressing 293 cells; Zcyto22 10 ng/ml; no antibody (fold induction) (IL10Rb (CRF2-4) (human)): 97
- ISRE-luciferase fold induction; zcytoR19-overexpressing 293 cells; Zcyto22 100 ng/ml; + IL10Rb neutralizing antibody (8 ug/ml) (fold induction) (IL10Rb (CRF2-4) (human)): 76
- ISRE-luciferase fold induction; zcytoR19-overexpressing 293 cells; Zcyto22 100 ng/ml; no antibody (fold induction) (IL10Rb (CRF2-4) (human)): 82
- ISRE-luciferase fold induction; 293 cells transfected with ISRE-Luc./Zcytor19; Zcyto22 125ng/ml (fold induction) (human zcytor19 (human)): 104
- ISRE-luciferase fold induction; BHK cells transfected with zcytoR19 alone; zcyto22 0.001 ng/ml (fold induction) (human zcytor19 (human)): 1.2
- ISRE-luciferase fold induction; BHK cells transfected with zcytoR19 alone; zcyto22 0.01 ng/ml (fold induction) (human zcytor19 (human)): 1.2
- ISRE-luciferase fold induction; BHK cells transfected with zcytoR19 alone; zcyto22 0.1 ng/ml (fold induction) (human zcytor19 (human)): 1.1
- ISRE-luciferase fold induction; BHK cells transfected with zcytoR19 alone; zcyto22 1 ng/ml (fold induction) (human zcytor19 (human)): 1.5
- ISRE-luciferase fold induction; BHK cells transfected with zcytoR19 alone; zcyto22 10 ng/ml (fold induction) (human zcytor19 (human)): 1.9
- ISRE-luciferase fold induction; BHK cells transfected with zcytoR19 alone; zcyto22 100 ng/ml (fold induction) (human zcytor19 (human)): 2
- ISRE-luciferase fold induction; BHK cells transfected with zcytoR19 alone; zcyto22 1000 ng/ml (fold induction) (human zcytor19 (human)): 1.8
